The values that follow come from patent US20260241035A1, “FUNCTIONAL NUCLEIC ACID MOLECULE AND METHOD” (THE UNIVERSITY COURT OF THE UNIVERSITY OF EDINBURGH, priority 2022, published 2026).

One data set concerns the target T1, SOX9 (Homo sapiens, UniProt P48436).
T1 construct: These dsDNA fragments were incubated with nuclear extract from GSC7 and GSC328; endogenous in cells; host or cells: nuclear extract of GSC7 and/or GSC328 (patient-derived glioblastoma stem cell lines)
T1 sequence (P48436 1-509): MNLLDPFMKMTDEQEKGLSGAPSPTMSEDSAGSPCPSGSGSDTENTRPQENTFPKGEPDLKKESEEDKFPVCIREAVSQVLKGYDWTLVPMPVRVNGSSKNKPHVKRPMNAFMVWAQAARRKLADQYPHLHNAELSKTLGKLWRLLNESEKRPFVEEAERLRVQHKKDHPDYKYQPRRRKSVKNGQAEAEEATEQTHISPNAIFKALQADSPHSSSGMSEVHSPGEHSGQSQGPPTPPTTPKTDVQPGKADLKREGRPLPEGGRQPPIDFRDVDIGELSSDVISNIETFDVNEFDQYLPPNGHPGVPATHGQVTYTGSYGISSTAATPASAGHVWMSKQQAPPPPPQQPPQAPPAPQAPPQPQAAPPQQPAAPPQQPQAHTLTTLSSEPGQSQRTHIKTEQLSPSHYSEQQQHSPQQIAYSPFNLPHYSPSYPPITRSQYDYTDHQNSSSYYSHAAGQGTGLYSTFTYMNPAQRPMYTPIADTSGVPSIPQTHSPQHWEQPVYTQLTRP
Put plainly: Biotinylated enhancer pull down from nuclear extract, SOX9 detection. It is filed as binding. The settings on record: random DNA 599 as negative control.

A further data set addresses T2, SOX2 (Homo sapiens, UniProt P48431).
T2 construct: endogenous in cells; host or cells: nuclear extract of GSC7 and GSC328 (patient-derived glioblastoma stem cell lines)
Put plainly: Biotinylated enhancer pull down from nuclear extract, western blot and mass spectrometry. It is filed as binding. The following applies: for SOX2 enrichment (mass spectrometry): normalised to random sequence 599. The method, then:
The oligo was PCR-amplified using biotinylated primers. The PCR product was then SPRI purified to remove biotinylated primer dimers. These dsDNA fragments were incubated with nuclear extract from GSC7 and GSC328. They were then bound to streptavidin magnetic beads, washed three times and the frozen beads were sent for mass spectrometry analysis.
All the buffers were prepared the day before, passed through a […] filter (except the dialysis buffer) and left at 4° C. overnight. DTT and protease inhibitors were added just before use. The cells were scraped on the media and collected on 50 ml falcons, which were spun at 1350 rcf 5 minutes at 4° C. The pellet was resuspended in 50 ml of ice cold PBS, an aliquot was taken for cell counting, and spun again spun at 1350 rcf 5 minutes at 4° C. The pellet was then resuspended in 5 ml per 40 million cells of ice cold buffer A (10 mM HEPES pH 7.9, 1.5 mM MgCl2, 10 mM KCl, 0.5 mM DTT, protease inhibitors (Complete, Roche, 11697498001)) and incubated on ice for 10 min. The cell suspension was transferred to a glass Dounce homogenizer and dounced 40 times on ice. The cell suspension was transferred to a falcon and centrifuged at 1350 rcf for 10 min at 4° C. The supernatant was discarded (cytosolic extract) and the pellet resuspended in 100 μl per 10 million cells in ice cold buffer B (20 mM HEPES pH 7.9, 5% glycerol, 1 M NaCl, 1.5 mM MgCl2, 0.2 mM EDTA pH 8.0, 0.5 mM DTT, protease inhibitors (Complete, Roche, 11697498001)). The suspension was rotated for 30 minutes at 4° C. and transferred into a dialysis membrane (SnakeSkin, Thermo Scientific, Cat 68100). Dialysis was carried out in 500 ml of dialysis buffer (20 mM HEPES pH 7.9, 5% glycerol, 100 mM KCl, 0.83 mM EDTA pH 8.0, 1.66 mM DTT, protease inhibitors (Complete, Roche, 11697498001)) for two hours at 4° C. with rotation. Dialysis buffer was changed (500 ml) and the dialysis was continued overnight at 4° C. […] The supernatant was collected into new 1.5 ml tubes and quantified (Pierce BCA Protein Assay Kit, Thermo Scientific, Cat 23225). […]
On the technique in general: In western blotting, separated proteins are transferred to a membrane and probed.

T2 sequence (P48431 whole entry): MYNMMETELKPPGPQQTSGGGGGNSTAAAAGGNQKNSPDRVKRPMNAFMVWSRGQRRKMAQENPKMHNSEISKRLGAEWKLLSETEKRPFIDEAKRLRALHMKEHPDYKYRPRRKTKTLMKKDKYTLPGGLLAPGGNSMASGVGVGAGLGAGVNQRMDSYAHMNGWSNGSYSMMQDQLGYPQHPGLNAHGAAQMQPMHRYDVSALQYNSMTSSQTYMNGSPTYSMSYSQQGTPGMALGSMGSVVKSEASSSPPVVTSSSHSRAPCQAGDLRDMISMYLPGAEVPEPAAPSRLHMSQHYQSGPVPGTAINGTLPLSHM
Protocol for SOX9: All the buffers were prepared the day before, passed through a 22 μm filter (except the dialysis buffer) and left at 4° C. overnight. DTT and protease inhibitors were added just before use. […] The cell suspension was transferred to a glass Dounce homogenizer and dounced 40 times on ice. […] Dialysis buffer was changed (500 ml) and the dialysis was continued overnight at 4° C. The extract was collected in an 1.5 ml tube and spun at maximum speed for 15 min at 4° C. […] 100 μg aliquots were flash frozen in liquid nitrogen and stored at −80° C.
Enhancers were amplified with 5′ biotinylated primers (Table 5) using PrimeStar Max (Takara) according to the manufacturer's instructions.
Streptavidin Magnetic Bead (NEB, S1420S) were used according to the manufacturer's instructions. […]
Next, we aimed to confirm that indeed SOX2 and SOX9 are binding to the enhancer and the SOX dimer motif. […] To filter for transcription factors a list of all transcription factors was obtained from UniProt and overlapped with the detected proteins in both cell lines.

B1: ID1101: enhancer fragment, SEQ ID NO: 4 (nucleic acid)
DNA: GTGAGTGTGACTCACATGCTGGCATCAGAGCCCCTCTTAGAGCTTAGAACACTGGGCCTCTGTCAGGCAAAGAAAAGGAGTCCCTATGAATAGCCATCTCCACAAATAGCAGTTACTGTCACTTCTTAAAAGACACAAGCATGGCTGGAGACCGGCACTG
For the molecule B1, the SOX9 interaction entry with SOX9 is reported as “selectively interacts”. Moreover, the “SOX2 enrichment (mass spectrometry)” value with SOX2 (G7 nuclear extract) was 4.4 fold; in the data set with SOX2 (GSC328 nuclear extract) it was 23 fold. The SOX2 pull down entry with SOX2 (GSC7 and GSC328) is given as “pulled down specifically”.
